Data reported in patent US20080050387A1, “Non-Androgen Dependent Roles for Androgen Receptor and Non-Androgen Related Inhibitors of Androgen Receptor” (priority 2003, published 2008).
Changes are numbered by the printed parent chain.

What was measured:
[1] = test system: MAPK (GAL4-Elk1 transactivation); test: GAL4-Elk1 reporter gene assay (MAPK activation) in MCF7 cells; assay type: cell-based, human; settings: AR-FL-activated, pG5-luc reporter
Procedure: Cells were plated in 96-well plates and plasmids at 0.5 μg per well were transfected into cells using SuperFect (Qiagen). The medium was changed 2 h after transfection and cells were cultured in the medium containing 10% CDS-FBS or 0.2% HI-FBS for 16 h, followed by treatment with 50 ng/ml EGF, 100 ng/ml IGF-1,100 ng/ml HRG-α 0.1 nM E2, or 1 nM DHT for another 16 h. Cells were then harvested and the luciferase activity was analyzed using Dual-Luciferase Reporter Assay System (Promega). 5 ng pRL-TK per well was used as internal control.

AR [2] = test: AR transactivation reporter gene assay in H1299 cells with ARA67; assay type: cell-based, human; settings: H1299 cells, 600 ng construct, MMTV-luc
Procedure: H1299 and COS-1 cells were maintained in Dulbecco's modified Eagle's medium (DMEM) (Life Technologies, Inc.) supplemented with 10% heat inactivated fetal bovine serum (FBS). LNCap cells were maintained in RPMI 1640 supplemented with […]. All media contain 100 units penicillin, 100 μg/ml streptomycin and 2 mM L-glutamine. Cells were seeded to a density of 50-60% confluency for transfection. In transfections where H1299 and COS-1 cells were used, the calcium phosphate precipitation method was used as described (Pan H J, et al. 1999. Endocrine 11:321-327) unless otherwise noted. […] In other reporter gene assays, where ligand treatment was required, cell culture media were changed to DMEM containing 10% charcoal-dextran-stripped FBS (CD-FBS) 2 h before transfection. After 16-18 h transfection, cells were treated with medium containing either vehicle or ligands for another 20-24 h and then cells were harvested. With LNCap cells transfection, the cells were treated with fresh RPMI 1640 containing 10% CD-FBS before transfection with SuperFect performed according to the manufacturer's protocol (Qiagen). After transfection, cells were allowed to recover in fresh RPMI 1640 containing 10% CD-FBS for 8-12 h, and then treated with either vehicle or ligands for another 20-24 h before harvesting. Each experiment was repeated at least three times.
Target sequence in this assay (P10275 with tags, fused parts or gaps DEL79-80/DUP473-473): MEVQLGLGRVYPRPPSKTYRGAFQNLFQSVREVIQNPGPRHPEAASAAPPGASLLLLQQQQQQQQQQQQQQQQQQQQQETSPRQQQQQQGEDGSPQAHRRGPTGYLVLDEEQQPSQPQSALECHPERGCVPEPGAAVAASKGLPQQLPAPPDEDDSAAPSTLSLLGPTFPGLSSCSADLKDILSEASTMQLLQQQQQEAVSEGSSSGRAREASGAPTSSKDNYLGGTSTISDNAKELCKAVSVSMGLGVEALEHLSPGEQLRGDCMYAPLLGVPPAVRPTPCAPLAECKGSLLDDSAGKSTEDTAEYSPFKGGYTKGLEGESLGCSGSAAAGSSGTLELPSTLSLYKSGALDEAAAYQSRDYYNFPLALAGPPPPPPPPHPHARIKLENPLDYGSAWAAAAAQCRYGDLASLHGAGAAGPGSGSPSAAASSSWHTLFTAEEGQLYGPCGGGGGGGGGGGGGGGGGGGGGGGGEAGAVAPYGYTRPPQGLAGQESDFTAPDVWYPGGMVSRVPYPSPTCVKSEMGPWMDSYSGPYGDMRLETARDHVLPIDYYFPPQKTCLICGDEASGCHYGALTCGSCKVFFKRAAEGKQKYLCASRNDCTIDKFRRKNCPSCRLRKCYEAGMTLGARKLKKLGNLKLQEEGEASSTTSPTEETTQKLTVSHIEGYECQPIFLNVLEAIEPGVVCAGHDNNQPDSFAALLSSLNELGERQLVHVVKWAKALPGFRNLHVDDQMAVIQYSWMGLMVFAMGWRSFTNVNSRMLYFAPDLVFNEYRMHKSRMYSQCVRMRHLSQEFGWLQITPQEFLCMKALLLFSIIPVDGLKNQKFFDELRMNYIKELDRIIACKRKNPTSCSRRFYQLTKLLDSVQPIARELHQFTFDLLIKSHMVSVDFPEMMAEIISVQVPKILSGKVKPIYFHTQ

AR (ARN, ARDBD, ARLBD) = test: GST pull-down assay ARA67 / AR; assay type: binding, human
Procedure: GST-ARN, GST-ARA67 fusion proteins, and GST control protein were expressed in BL21 (DE3)pLysS bacteria strain (Stratagene) and purified with glutathione-Sepharose beads as instructed by the manufacturer (Amersham Pharmacia). In vitro [^35S]methionine-labeled AR, ARN, AR DBD, AR LBD and ARA67 proteins were generated using TNT-coupled Reticulocyte Lysate Systems (Promega). For in vitro interaction, mixtures of glutathione beads bound GST fusion proteins and 5 μl [^35S]methionine-labeled input proteins in 100 μl interaction buffer (20 mM Tris/pH8.0, 60 mM NaCl, 6 mM MgCl2, 1 mM EDTA, 0.05% Nonidet P-40, 1 mM DTT, 8% glycerol, 1 mM PMSF) were incubated in the presence or absence of 10 μM dihydrotestosterone (DHT) on a rotating disk at 4° C. for 2 h. After washing with NETN buffer (20 mM Tris/pH8.0, 100 mM NaCl, 6 mM MgCl2, 1 mM EDTA, 0.5% Nonidet P-40, 1 mM DTT, 8% glycerol, 1 mM PMSF) four times, the bound proteins were separated on 8-13% SDS-PAGE and visualized by autoradiography.

AR [3] = test: Mammalian two-hybrid assay hRad9 / AR in PC-3 cells; assay type: cell-based, human; settings: 10 nM DHT; for interaction between AR and full-length hRad9 / interaction between AR and the fragment of hRad9 (aa 327-391): FXXLF motif mutants
Procedure: (§1) PC-3, CWR22R, and LNCaP cell lines were maintained in […] supplemented with 10% fetal calf serum (FCS). Transient transfection for luciferase assays was carried out in 24-well plates (5×10^4 cells per well) using SuperFect as described previously (Lin, H. K., et al., Embo J 21:4037-48 (2002)). DNA mixtures in transfection assay were indicated in each figure. The total amount of transfected DNA was kept constant (1 μg) by adding the corresponding amounts of empty expression plasmids. After transfection, cells were cultured in […] supplemented with 5% charcoal-stripped FCS in the presence or absence of 10 nM dihydrotestosterone (DHT) for 18 h. Luciferase assays were performed as previously described (Yang, L., et al., J Biol Chem 278:16820-7 (2003)). In Western blotting assays, CWR22R or LNCaP cells were transfected by electroporation using 5×10^6 cells/0.4 ml of RPMI medium containing 2% FCS plus 9 μg of the indicated plasmids. 1 μg of EGFP expression vector was used for transfection efficiency. Electroporation was performed at 250 V and 950 μF using Gene Pulser II (Bio-Rad)
Target sequence in this assay (P10275 with tags, fused parts or gaps DEL79-80/DUP473-473): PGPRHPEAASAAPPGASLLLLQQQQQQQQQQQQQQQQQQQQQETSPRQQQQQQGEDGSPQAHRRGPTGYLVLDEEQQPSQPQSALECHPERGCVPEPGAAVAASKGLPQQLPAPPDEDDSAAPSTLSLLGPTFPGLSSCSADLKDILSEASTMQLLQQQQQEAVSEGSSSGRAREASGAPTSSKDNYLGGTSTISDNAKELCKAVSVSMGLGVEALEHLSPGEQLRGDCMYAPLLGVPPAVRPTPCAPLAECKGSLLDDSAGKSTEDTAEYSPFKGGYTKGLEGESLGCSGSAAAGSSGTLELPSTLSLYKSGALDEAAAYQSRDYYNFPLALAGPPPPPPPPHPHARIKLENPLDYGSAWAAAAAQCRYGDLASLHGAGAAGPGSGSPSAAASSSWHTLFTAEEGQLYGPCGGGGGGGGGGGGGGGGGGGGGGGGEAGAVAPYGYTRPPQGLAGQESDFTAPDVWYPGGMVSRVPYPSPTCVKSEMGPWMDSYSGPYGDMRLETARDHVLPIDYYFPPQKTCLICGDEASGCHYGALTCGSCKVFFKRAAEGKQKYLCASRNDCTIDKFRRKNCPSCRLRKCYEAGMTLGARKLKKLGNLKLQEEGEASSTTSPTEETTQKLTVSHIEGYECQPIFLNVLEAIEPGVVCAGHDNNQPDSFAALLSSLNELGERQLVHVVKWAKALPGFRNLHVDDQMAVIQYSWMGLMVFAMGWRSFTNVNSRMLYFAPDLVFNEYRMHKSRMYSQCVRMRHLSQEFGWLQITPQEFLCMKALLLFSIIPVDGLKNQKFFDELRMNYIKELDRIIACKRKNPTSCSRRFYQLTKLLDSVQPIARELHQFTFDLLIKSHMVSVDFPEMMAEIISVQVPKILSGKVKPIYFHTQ

AR (DBD-LBD, LBD, DBD) = test: Yeast two-hybrid / liquid β-gal assay hRad9 fragment / AR domains; assay type: cell-based, human
Source text: The DBD and LBD of AR cDNA was amplified and was cloned into the NdeI and BamHI site of pGBKT7 (Clontech). Yeast strain AH109 was transformed with the vector encoding GAL4 DBD-AR-DBD-LBD fusion and was mated with yeast strain Y187 pretransformed with the human ovary […] cDNA library (Clontech). The yeast clones were selected following the manufacturer's instruction. The positive clones were confirmed by clone lift assay and purified plasmids were retransformed into yeast strain AH109 with bait plasmids. The interaction specificity was further confirmed by liquid […] assay.

AR [4] = test: AR transactivation MMTV-LUC assay in PC-3 cells with hRad9; assay type: cell-based, human
Procedure: as §1

AR N/C interaction = test: Reconstituted AR transcription assay (AR N/C interaction) in PC-3 cells; assay type: cell-based, human; settings: 10 nM DHT, MMTV-LUC
Procedure: as §1

Chain of AR N/C interaction (P10275 557-920): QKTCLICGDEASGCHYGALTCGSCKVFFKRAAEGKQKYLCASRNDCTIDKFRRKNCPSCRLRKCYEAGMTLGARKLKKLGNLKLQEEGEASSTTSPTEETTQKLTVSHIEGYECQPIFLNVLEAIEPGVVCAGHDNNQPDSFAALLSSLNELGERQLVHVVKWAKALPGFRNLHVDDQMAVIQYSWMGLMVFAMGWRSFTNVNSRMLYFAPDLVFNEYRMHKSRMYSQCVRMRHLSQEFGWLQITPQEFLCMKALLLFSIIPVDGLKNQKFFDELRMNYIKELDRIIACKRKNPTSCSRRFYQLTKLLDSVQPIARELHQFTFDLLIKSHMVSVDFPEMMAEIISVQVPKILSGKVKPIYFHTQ
Chain of AR (ARN, ARDBD, ARLBD) (P10275 with tags, fused parts or gaps DEL79-80/DUP473-473): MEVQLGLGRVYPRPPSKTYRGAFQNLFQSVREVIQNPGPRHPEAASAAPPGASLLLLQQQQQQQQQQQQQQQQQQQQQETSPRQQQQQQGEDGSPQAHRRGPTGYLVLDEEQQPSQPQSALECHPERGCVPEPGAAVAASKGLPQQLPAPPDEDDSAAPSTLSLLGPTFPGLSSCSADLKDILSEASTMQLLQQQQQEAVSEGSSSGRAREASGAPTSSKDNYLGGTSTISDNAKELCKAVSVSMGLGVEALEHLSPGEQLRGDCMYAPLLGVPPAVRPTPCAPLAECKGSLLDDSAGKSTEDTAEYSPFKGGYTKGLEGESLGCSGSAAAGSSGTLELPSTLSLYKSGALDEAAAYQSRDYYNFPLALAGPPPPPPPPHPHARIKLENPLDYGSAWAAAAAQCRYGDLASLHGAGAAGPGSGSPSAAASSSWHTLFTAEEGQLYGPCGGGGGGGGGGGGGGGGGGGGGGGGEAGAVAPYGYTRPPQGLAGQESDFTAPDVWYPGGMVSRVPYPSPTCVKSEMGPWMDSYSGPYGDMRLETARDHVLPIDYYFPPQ

B1: CL-100: MAPK phosphatase-1 (protein, UniProt P28562 1-367, looked up)
Dual specificity protein …: MVMEVGTLDAGGLRALLGERAAQCLLLDCRSFFAFNAGHIAGSVNVRFSTIVRRRAKGAMGLEHIVPNAELRGRLLAGAYHAVVLLDERSAALDGAKRDGTLALAAGALCREARAAQVFFLKGGYEAFSASCPELCSKQSTPMGLSLPLSTSVPDSAESGCSSCSTPLYDQGGPVEILPFLYLGSAYHASRKDMLDALGITALINVSANCPNHFEGHYQYKSIPVEDNHKADISSWFNEAIDFIDSIKNAGGRVFVHCQAGISRSATICLAYLMRTNRVKLDEAFEFVKQRRSIISPNFSFMGQLLQFESQVLAPHCSAEAGSPAMAVLDRGTSTTTVFNFPVSIPVHSTNSALSYLQSPITTSPSC
AR-activated GAL4-Elk1 activity [1]: diminished

B2: ARA67281-550: truncated ARA67 fragment, residues 281-550 (protein)
chain: GSKHPKYSDTLLDYGFYLLNVDNICQSVAIYQAALDIRQSVFGGKNIHVATAHEDLAYSSYVHQYSSGKFDNALFHAERAIGIITHILPEDHLLLASSKRVKALILEEIAIDCHNKETEQRLLQEAHDLHLSSLQLAKKAFGEFNVQTAKHYGNLGRLYQSMRKFKEAEEMHIKAIQIKEQLLGQEDYEVALSVGHLASLYNYDMNQYENAEKLYLRSIAIGKKLFGEGYSGLEYDYRGLIKLYNSIGNYEKVFEYHNVLSNWNRLRDRQ
suppression of AR transactivation by ARA67 fragments (AR [2]): could also suppress AR transactivation | interaction with ARN (AR (ARN, ARDBD, ARLBD)): slightly stronger interaction

B3: f-hRad9: fragment aa 327-391 of hRad9 containing the FXXLF motif (protein, UniProt Q99638 327-391, looked up, fragment)
chain: LSPGPQPPKSPGPHSEEEDEAEPSTVPGTPPPKKFRSLFFGSILAPVRSPQGPSPVLAEDSEGEG
interaction with AR (AR [3]): androgen-dependent interactions were detected | interaction with AR LBD (AR (DBD-LBD, LBD, DBD); AH109 yeast cells, presence of androgen): interacted | liquid β-gal assay induction with the AR-DBD-LBD (AR (DBD-LBD, LBD, DBD); yeast, presence of DHT): strong induction

B4: C-terminus of hRad9: hRad9 aa 269-391 (protein, UniProt Q99638 269-391, looked up, fragment)
chain: DSHSQDLGSPERHQPVPQLQAHSTPHPDDFANDDIDSYMIAMETTIGNEGSRVLPSISLSPGPQPPKSPGPHSEEEDEAEPSTVPGTPPPKKFRSLFFGSILAPVRSPQGPSPVLAEDSEGEG
interaction with AR (AR [3]): strong interaction | AR-mediated transactivation (full length AR) (AR [4]; pCMV-AR, hRad9 termini): suppressed | interaction between AR N- and C-terminus (AR N/C interaction): potently inhibit

B5: N-hRad9: PCNA-like domain of hRad9, aa 1-270 (protein)
chain: MKCLVTGGNVKVLGKAVHSLSRIGDELYLEPLEDGLSLRTVNSSRSAYACFLFAPLFFQQYQAATPGQDLLRCKILMKSFLSVFRSLAMLEKTVEKCCISLNGRSSRLVVQLHCKFGVRKTHNLSFQDCESLQAVFDPASCPHMLRAPARVLGEAVLPFSPALAEVTLGIGRGRRVILRSYHEEEADSTAKAMVTEMCLGEEDFQQLQAQEGVAITFCLKEFRGLLSFAESANLNLSIHFDAPGRPAIFTIKDSLLDGHFVLATLSDTDS
interaction with AR (AR [3]): did not | interaction between AR N- and C-terminus (AR N/C interaction): no effect

B6: AXXLF: hRad9 mutant, F361 converted to Ala (protein, UniProt Q99638 1-391, looked up, variant F361A)
Cell cycle checkpoint control …: MKCLVTGGNVKVLGKAVHSLSRIGDELYLEPLEDGLSLRTVNSSRSAYACFLFAPLFFQQYQAATPGQDLLRCKILMKSFLSVFRSLAMLEKTVEKCCISLNGRSSRLVVQLHCKFGVRKTHNLSFQDCESLQAVFDPASCPHMLRAPARVLGEAVLPFSPALAEVTLGIGRGRRVILRSYHEEEADSTAKAMVTEMCLGEEDFQQLQAQEGVAITFCLKEFRGLLSFAESANLNLSIHFDAPGRPAIFTIKDSLLDGHFVLATLSDTDSHSQDLGSPERHQPVPQLQAHSTPHPDDFANDDIDSYMIAMETTIGNEGSRVLPSISLSPGPQPPKSPGPHSEEEDEAEPSTVPGTPPPKKARSLFFGSILAPVRSPQGPSPVLAEDSEGEG
interaction between AR and full-length hRad9 (AR [3]): reduced | interaction between AR and the fragment of hRad9 (aa 327-391) (AR [3]): decreased dramatically

B7: FXXAA: hRad9 mutant, L364 and F365 converted to Ala (protein, UniProt Q99638 1-391, looked up, variant L364A F365A)
Cell cycle checkpoint control …: B6 Cell cycle checkpoint control … with A361F, L364A, F365A
interaction between AR and full-length hRad9 (AR [3]): reduced | interaction between AR and the fragment of hRad9 (aa 327-391) (AR [3]): decreased dramatically | transcriptional activity of AR (AR [4]; MMTV-LUC, 10 nM DHT): only marginal effect
